This is an account of results in the supplement of paper PMC5998384.

Data set [1] concerns HeLa Kyoto. Kind of data set: solubility in G1/S (NP-40 vs SDS abundance) (log2 ratio); higher = more soluble. Particulars: cell cycle stage: G1/S.
For data set [2], the system named is HeLa Kyoto. Kind of data set: solubility change mitosis vs G1/S (difference of NP-40 vs SDS log2 ratios) (log2 ratio difference); higher = more soluble in mitosis.
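Wherever solubility change mitosis vs G1/S (difference of NP-40 vs SDS log2 ratios) is given: synchronized HeLa Kyoto cells (double thymidine block for G1/S, nocodazole release for mitosis), protein amounts in NP-40 versus SDS lysates quantified by mass spectrometry, three biological replicates.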
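Wherever solubility in G1/S (NP-40 vs SDS abundance) is given: HeLa Kyoto cells arrested at G1/S by double thymidine block, proteins quantified by TMT10plex mass spectrometry in mild NP-40 versus SDS extracts, three biological replicates.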

Chain of MAP4K5 (chain, as listed by the source): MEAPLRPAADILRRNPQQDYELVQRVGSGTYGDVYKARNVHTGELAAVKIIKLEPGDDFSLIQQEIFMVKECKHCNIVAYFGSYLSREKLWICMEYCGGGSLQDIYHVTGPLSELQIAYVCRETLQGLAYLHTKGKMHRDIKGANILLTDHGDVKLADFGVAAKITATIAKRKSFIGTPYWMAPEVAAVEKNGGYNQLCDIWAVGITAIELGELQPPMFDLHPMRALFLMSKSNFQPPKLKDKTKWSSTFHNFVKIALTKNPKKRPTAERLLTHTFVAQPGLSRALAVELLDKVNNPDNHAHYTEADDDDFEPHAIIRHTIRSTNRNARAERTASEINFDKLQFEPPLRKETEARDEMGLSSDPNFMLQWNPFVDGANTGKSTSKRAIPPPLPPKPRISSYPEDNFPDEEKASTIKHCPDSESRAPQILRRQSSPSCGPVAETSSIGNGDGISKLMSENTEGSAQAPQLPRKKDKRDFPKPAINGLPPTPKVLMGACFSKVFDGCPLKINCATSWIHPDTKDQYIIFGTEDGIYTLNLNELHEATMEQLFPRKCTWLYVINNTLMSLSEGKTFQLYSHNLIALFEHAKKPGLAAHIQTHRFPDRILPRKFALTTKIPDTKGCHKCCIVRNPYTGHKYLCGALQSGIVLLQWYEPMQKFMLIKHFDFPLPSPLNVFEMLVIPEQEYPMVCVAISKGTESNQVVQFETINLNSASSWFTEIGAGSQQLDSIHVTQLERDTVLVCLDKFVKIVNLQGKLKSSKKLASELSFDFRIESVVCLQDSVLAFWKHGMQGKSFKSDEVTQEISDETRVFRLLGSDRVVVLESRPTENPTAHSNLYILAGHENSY

On to “MAMASPAIGQRPYPLLLDPEPPRYLQSLSGPELPPPPPDRSSRLCVPAPLSTAPGAREGRSARRAARGNLEPPPRASRPARPLRPGLQQRLRRRPGAPRPRDVRSIFEQPQDPRVPAERGEGHCFAELVLPGGPGWCDLCGREVLRQALRCTNCKFTCHPECRSLIQLDCSQQEGLSRDRPSPESTLTVTFSQNVCKPVEETQRPPTLQEIKQKIDSYNTREKNCLGMKLSEDGTYTGFIKVHLKLRRPVTVPAGIRPQSIYDAIKEVNLAATTDKRTSFYLPLDAIKQLHISSTTTVSEVIQGLLKKFMVVDNPQKFALFKRIHKDGQVLFQKLSIADRPLYLRLLAGPDTEVLSFVLKENETGEVEWDAFSIPELQNFLTILEKEEQDKIQQVQKKYDKFRQKLEEALRESQGKPG [RASSF5]”, for which the “solubility in G1/S (log2)” value in the data set on HeLa Kyoto [1] was found to be 0.328. Moreover, the “solubility change mitosis (log2)” value with HeLa Kyoto [2] was -0.108.
MAP4K5: the “solubility in G1/S (log2)” value in the data set with HeLa Kyoto [1] came out at 0.172. In addition, the “solubility change mitosis (log2)” value with HeLa Kyoto [2] is -0.0819.
Taken in the same sequence, the figures for “MAPEENAGTELLLQSFERRFLAARTLRSFPWQSLEAKLRDSSDSELLRDILHKTVKHPVCVKHPPSVKYARCFLSELIKKHEAVHTEPLDELYEALAETLMAKESTQGHRSYLLPSGGSVTLSESTAIISYGTTGLVTWDAALYLAEWAIENPAVFTNRTVLELGSGAGLTGLAICKMCRPRAYIFSDCHSRVLEQLRGNVLLNGLSLEADITAKLDSPRVTVAQLDWDVATVHQLSAFQPDVVIAADVLYCPEAIMSLVGVLRRLAACREHQRAPEVYVAFTVRNPETCQLFTTELGRAGIRWEVEPRHEQKLFPYEEHLEMAMLNLTL [EEF2KMT]” were 0.0707 and -0.00202.
Regarding “MAPGEVTITVRLIRSFEHRNFKPVVYHGVNLDQTVKEFIVFLKQDIPLRTNLPPPFRNYKYDALKIIHQAHKSKTNELVLSLEDDERLLLKEDSTLKAAGIASETEIAFFCEEDYKNYKANPISSW [C2ORF76]”, in the data set on HeLa Kyoto [1], the “solubility in G1/S (log2)” value was -0.239. Moreover, the “solubility change mitosis (log2)” value in the data set with HeLa Kyoto [2] stood at 0.0795.
Taken in the same sequence, the figures for “MAPPAGGAAAAASDLGSAAVLLAVHAAVRPLGAGPDAEAQLRRLQLSADPERPGRFRLELLGAGPGAVNLEWPLESVSYTIRGPTQHELQPPPGGPGTLSLHFLNPQEAQRWAVLVRGATVEGQNGSKSNSPPALGPEACPVSLPSPPEASTLKGPPPEADLPRSPGNLTEREELAGSLARAIAGGDEKGAAQVAAVLAQHRVALSVQLQEACFPPGPIRLQVTLEDAASAASAASSAHVALQVHPHCTVAALQEQVFSELGFPPAVQRWVIGRCLCVPERSLASYGVRQDGDPAFLYLLSAPREAPATGPSPQHPQKMDGELGRLFPPSLGLPPGPQPAASSLPSPLQPSWSCPSCTFINAPDRPGCEMCSTQRPCTWDPLAAAST [SHARPIN]” were 0.196 and -0.0725.
Turning to “MAPRKGSSRVAKTNSLRRRKLASFLKDFDREVEIRIKQIESDRQNLLKEVDNLYNIEILRLPKALREMNWLDYFALGGNKQALEEAATADLDITEINKLTAEAIQTPLKSAKTRKVIQVDEMIVEEEEEEENERKNLQTARVKRCPPSKKRTQSIQGKGKGKRSSRANTVTPAVGRLEVSMVKPTPGLTPRFDSRVFKTPGLRTPAAGERIYNISGNGSPLADSKEIFLTVPVGGGESLRLLASDLQRHSIAQLDPEALGNIKKLSNRLAQICSSIRTHK [CDCA8]”, the “solubility in G1/S (log2)” value with HeLa Kyoto [1] is -1.64. Besides, the “solubility change mitosis (log2)” value in the data set on HeLa Kyoto [2] was 0.0931.
Taken in the same sequence, the figures for “MAQAHRTPQPRAAPSQPRVFKLVLLGSGSVGKSSLALRYVKNDFKSILPTVGCAFFTKVVDVGATSLKLEIWDTAGQEKYHSVCHLYFRGANAALLVYDITRKDSFLKAQQWLKDLEEELHPGEVLVMLVGNKTDLSQEREVTFQEGKEFADSQKLLFMETSAKLNHQVSEVFNTVAQELLQRSDEEGQALRGDAAVALNKGPARQAKCCAH [RAB17]” were 0.138 and -0.134.
For “MAQASLLACEGLAGVSLVPTAASKKMMLSQIASKQAENGERAGSPDVLRCSSQGHRKDSDKSRSRKDDDSLSEASHSKKTVKKVVVVEQNGSFQVKIPKNFVCEHCFGAFRSSYHLKRHILIHTGEKPFECDICDMRFIQKYHLERHKRVHSGEKPYQCERCHQCFSRTDRLLRHKRMCQGCQSKTSDGQFSL [ZNF740]”, the “solubility in G1/S (log2)” value in the data set on HeLa Kyoto [1] was -0.111. The “solubility change mitosis (log2)” value in the data set with HeLa Kyoto [2] is -0.0892.
For “MAQGLIEVERKFLPGPGTEERLQELGGTLEYRVTFRDTYYDTPELSLMQADHWLRRREDSGWELKCPGAAGVLGPHTEYKELTAEPTIVAQLCKVLRADGLGAGDVAAVLGPLGLQEVASFVTKRSAWKLVLLGADEEEPQLRVDLDTADFGYAVGEVEALVHEEAEVPTALEKIHRLSSMLGVPAQETAPAKLIVYLQRFRPQDYQRLLEVNSSRERPQETEDPDHCLG [THTPA]” the same measures were 0.0904 and 0.0566.
For “MAQGSHQIDFQVLHDLRQKFPEVPEVVVSRCMLQNNNNLDACCAVLSQESTRYLYGEGDLNFSDDSGISGLRNHMTSLNLDLQSQNIYHHGREGSRMNGSRTLTHSISDGQLQGGQSNSELFQQEPQTAPAQVPQGFNVFGMSSSSGASNSAPHLGFHLGSKGTSSLSQQTPRFNPIMVTLAPNIQTGRNTPTSLHIHGVPPPVLNSPQGNSIYIRPYITTPGGTTRQTQQHSGWVSQFNPMNPQQVYQPSQPGPWTTCPASNPLSHTSSQQPNQQGHQTSHVYMPISSPTTSQPPTIHSSGSSQSSAHSQYNIQNISTGPRKNQIEIKLEPPQRNNSSKLRSSGPRTSSTSSSVNSQTLNRNQPTVYIAASPPNTDELMSRSQPKVYISANAATGDEQVMRNQPTLFISTNSGASAASRNMSGQVSMGPAFIHHHPPKSRAIGNNSATSPRVVVTQPNTKYTFKITVSPNKPPAVSPGVVSPTFELTNLLNHPDHYVETENIQHLTDPTLAHVDRISETRKLSMGSDDAAYTQALLVHQKARMERLQRELEIQKKKLDKLKSEVNEMENNLTRRRLKRSNSISQIPSLEEMQQLRSCNRQLQIDIDCLTKEIDLFQARGPHFNPSAIHNFYDNIGFVGPVPPKPKDQRSIIKTPKTQDTEDDEGAQWNCTACTFLNHPALIRCEQCEMPRHF [TAB2]” the same measures were 0.348 and -0.0447.
Taken in the same sequence, the figures for “MAQKENSYPWPYGRQTAPSGLSTLPQRVLRKEPVTPSALVLMSRSNVQPTAAPGQKVMENSSGTPDILTRHFTIDDFEIGRPLGKGKFGNVYLAREKKSHFIVALKVLFKSQIEKEGVEHQLRREIEIQAHLHHPNILRLYNYFYDRRRIYLILEYAPRGELYKELQKSCTFDEQRTATIMEELADALMYCHGKKVIHRDIKPENLLLGLKGELKIADFGWSVHAPSLRRKTMCGTLDYLPPEMIEGRMHNEKVDLWCIGVLCYELLVGNPPFESASHNETYRRIVKVDLKFPASVPMGAQDLISKLLRHNPSERLPLAQVSAHPWVRANSRRVLPPSALQSVA [AURKB]” were -1.2 and -0.11.
With “MAQRYDDLPHYGGMDGVGIPSTMYGDPHAARSMQPVHHLNHGPPLHSHQYPHTAHTNAMAPSMGSSVNDALKRDKDAIYGHPLFPLLALIFEKCELATCTPREPGVAGGDVCSSESFNEDIAVFAKQIRAEKPLFSSNPELDNLMIQAIQVLRFHLLELEKVHELCDNFCHRYISCLKGKMPIDLVIDDREGGSKSDSEDITRSANLTDQPSWNRDHDDTASTRSGGTPGPSSGGHTSHSGDNSSEQGDGLDNSVASPSTGDDDDPDKDKKRHKKRGIFPKVATNIMRAWLFQHLTHPYPSEEQKKQLAQDTGLTILQVNNWFINARRRIVQPMIDQSNRAVSQGTPYNPDGQPMGGFVMDGQQHMGIRAPGPMSGMGMNMGMEGQWHYM [MEIS1]”, the “solubility in G1/S (log2)” value with HeLa Kyoto [1] came out at 0.363. The “solubility change mitosis (log2)” value with HeLa Kyoto [2] is -0.208.
Take “MARGGDTGCTGPSETSASGAAAIALPGLEGPATDAQCQTLPLTVLKSRSPSPRSLPPALSCPPPQPAMLEHLSSLPTQMDYKGQKLAEQMFQGIILFSAIVGFIYGYVAEQFGWTVYIVMAGFAFSCLLTLPPWPIYRRHPLKWLPVQESSTDDKKPGERKIKRHAKNN [SPCS1]”: the “solubility in G1/S (log2)” value in the data set with HeLa Kyoto [1] is -0.248. Moreover, the “solubility change mitosis (log2)” value with HeLa Kyoto [2] was -0.00723.
Taken in the same sequence, the figures for “MASESETLNPSARIMTFYPTMEEFRNFSRYIAYIESQGAHRAGLAKVVPPKEWKPRASYDDIDDLVIPAPIQQLVTGQSGLFTQYNIQKKAMTVREFRKIANSDKYCTPRYSEFEELERKYWKNLTFNPPIYGADVNGTLYEKHVDEWNIGRLRTILDLVEKESGITIEGVNTPYLYFGMWKTSFAWHTEDMDLYSINYLHFGEPKSWYSVPPEHGKRLERLAKGFFPGSAQSCEAFLRHKMTLISPLMLKKYGIPFDKVTQEAGEFMITFPYGYHAGFNHGFNCAESTNFATRRWIEYGKQAVLCSCRKDMVKISMDVFVRKFQPERYKLWKAGKDNTVIDHTLPTPEAAEFLKESELPPRAGNEEECPEEDMEGVEDGEEGDLKTSLAKHRIGTKRHRVCLEIPQEVSQSELFPKEDLSSEQYEMTECPAALAPVRPTHSSVRQVEDGLTFPDYSDSTEVKFEELKNVKLEEEDEEEEQAAAALDLSVNPASVGGRLVFSGSKKKSSSSLGSGSSRDSISSDSETSEPLSCRAQGQTGVLTVHSYAKGDGRVTVGEPCTRKKGSAARSFSERELAEVADEYMFSLEENKKSKGRRQPLSKLPRHHPLVLQECVSDDETSEQLTPEEEAEETEAWAKPLSQLWQNRPPNFEAEKEFNETMAQQAPHCAVCMIFQTYHQVEFGGFNQNCGNASDLAPQKQRTKPLIPEMCFTSTGCSTDINLSTPYLEEDGTSILVSCKKCSVRVHASCYGVPPAKASEDWMCSRCSANALEEDCCLCSLRGGALQRANDDRWVHVSCAVAILEARFVNIAERSPVDVSKIPLPRFKLKCIFCKKRRKRTAGCCVQCSHGRCPTAFHVSCAQAAGVMMQPDDWPFVVFITCFRHKIPNLERAKGALQSITAGQKVISKHKNGRFYQCEVVRLTTETFYEVNFDDGSFSDNLYPEDIVSQDCLQFGPPAEGEVVQVRWTDGQVYGAKFVASHPIQMYQVEFEDGSQLVVKRDDVYTLDEELPKRVKSRLSVASDMRFNEIFTEKEVKQEKKRQRVINSRYREDYIEPALYRAIME [KDM4A]” were -0.143 and 0.0206.
With “MASGDFCSPGEGMEILQQVCSKQLPPCNLSKEDLLQNPYFSKLLLNLSQHVDESGLSLTLAKEQAQAWKEVRLHKTTWLRSEILHRVIQELLVDYYVKIQDTNVTSEDKKFHETLEQRLLVTELMRLLGPSQEREIPPLLGLEKADLLELMPLSEDFVWMRARLQQEVEEQLKKKCFTLLCYYDPNSDADSETVKAAKVWKLAEVLVGEQQQCQDAKSQQKEQMLLLEKKSAAYSQVLLRCLTLLQRLLQEHRLKTQSELDRINAQYLEVKCGAMILKLRMEELKILSDTYTVEKVEVHRLIRDRLEGAIHLQEQDMENSRQVLNSYEVLGEEFDRLVKEYTVLKQATENKRWALQEFSKVYR [HAUS4]”, the “solubility in G1/S (log2)” value in the data set on HeLa Kyoto [1] worked out at 0.377. The “solubility change mitosis (log2)” value in the data set with HeLa Kyoto [2] is -0.0485.
In the case of “MASKKVCIVGSGNWGSAIAKIVGGNAAQLAQFDPRVTMWVFEEDIGGKKLTEIINTQHENVKYLPGHKLPPNVVAVPDVVQAAEDADILIFVVPHQFIGKICDQLKGHLKANATGISLIKGVDEGPNGLKLISEVIGERLGIPMSVLMGANIASEVADEKFCETTIGCKDPAQGQLLKELMQTPNFRITVVQEVDTVEICGALKNVVAVGAGFCDGLGFGDNTKAAVIRLGLMEMIAFAKLFCSGPVSSATFLESCGVADLITTCYGGRNRKVAEAFARTGKSIEQLEKELLNGQKLQGPETARELYSILQHKGLVDKFPLFMAVYKVCYEGQPVGEFIHCLQNHPEHM [GPD1]”, the “solubility in G1/S (log2)” value in the data set with HeLa Kyoto [1] was determined as 0.278. The “solubility change mitosis (log2)” value in the data set with HeLa Kyoto [2] came to 0.00396.
